{"source": "paper PMC10017365", "about": "“Functional characterization of Vip3Aa from Bacillus thuringiensis reveals the contributions of specific domains to its insecticidal activity” (The Journal of Biological Chemistry, 2023)", "key": {"[1]": {"molecular_target": "Vip3Aa DI-DIII (domain I to domain III truncation variant, untreated) (Bacillus thuringiensis 9816C)", "assay": "SEC; trypsin-treated proteins (1:50 wt:wt, 4 °C, 6 h) on Superdex 200 Increase 10/300 GL, peak fractions analysed by SDS-PAGE; untreated DI-DIV and DI-DIII as controls"}, "[2]": {"molecular_target": "Vip3Aa (full-length Vip3Aa protoxin, from Bacillus thuringiensis 9816C) (Bacillus thuringiensis 9816C)", "assay": "SEC + other: dynamic light scattering; purified proteins on a Superdex 200 Increase 10/300 GL column; DLS of the same proteins (Fig. S2A)"}, "[3]": {"molecular_target": "trypsin-activated Vip3Aa DI-DIII (DI-DIII^act) (Bacillus thuringiensis 9816C)", "assay": "SEC; trypsin-treated proteins (1:50 wt:wt, 4 °C, 6 h) on Superdex 200 Increase 10/300 GL, peak fractions analysed by SDS-PAGE; untreated DI-DIV and DI-DIII as controls"}}, "data": [{"substance": "Vip3Aa DI-DIII (domain I to domain III truncation variant, untreated) (domain or fragment)", "values": [{"measurement": "stoichiometry N", "setting": "[1]", "result": 4}]}, {"substance": "Vip3Aa (full-length Vip3Aa protoxin, from Bacillus thuringiensis 9816C) (natural protein)", "values": [{"measurement": "stoichiometry N", "setting": "[2]", "result": 4}]}, {"substance": "trypsin-activated Vip3Aa DI-DIII (DI-DIII^act) (complex)", "values": [{"measurement": "stoichiometry N", "setting": "[3]", "result": 4}]}]}
